Results as given in patent US20260248972A1, “DUAL RECEPTOR TARGETING RADIOLIGANDS AND USES THEREOF RELATED APPLICATIONS” (priority 2022, published 2026).

Experiment: in vivo
Details: BALB/c nude, mouse, iv, total radioactivity
Outline: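 Tissue uptake given as % ID and % ID/g from γ counting of organs taken 4, 24 and 72 h after injection into BALB/c nude mice carrying subcutaneous AR42J xenografts (0.05-0.50 g). Tracers were ^177Lu-labelled at 95° C for 15 min in pH 4.5 NaOAc buffer and used neat or diluted in PBS containing 3 mg/mL ascorbate.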

With `C[C@@H](O)[C@H](NC(=O)[C@@H]1CSSC[C@H](NC(=O)[C@@H](Cc2ccccc2)NC(=O)COCCOCCNC(=O)[C@H](CCCCNC(=O)CC[C@H](NC(=O)CNC(=O)c2cccc(NC(=O)N[C@@H]3CN(C4CCCCC4)c4ccccc4N(CC(=O)C(C)(C)C)C3=O)c2)C(=O)O)NC(=O)COCCOCCNC(=O)CC[C@H](NC(=O)CC[C@H](NC(=O)CN2CCN(CC(=O)O)CCN(CC(=O)O)CCN(CC(=O)O)CC2)C(=O)O)C(=O)O)C(=O)N[C@@H](Cc2ccc(O)cc2)C(=O)N[C@H](Cc2c[nH]c3ccccc23)C(=O)N[C@@H](CCCCN)C(=O)N[C@@H]([C@@H](C)O)C(=O)N1)C(=O)O` [^177Lu-1-14, metal not drawn] the tissue uptake at 4 h (in vivo, % ID/g Adrenal gland) was 3.55 %ID/g, the tissue uptake at 24 h (in vivo, % ID/g Adrenal gland) was 2.72 %ID/g and the tissue uptake at 72 h (in vivo, % ID/g Adrenal gland) was 1.44 %ID/g. The tissue uptake at 4 h (in vivo, % ID/g Blood) was 1.32 %ID/g, the tissue uptake at 24 h (in vivo, % ID/g Blood) was 0.09 %ID/g and the tissue uptake at 72 h (in vivo, % ID/g Blood) was 0.02 %ID/g. For the same compound, the tissue uptake at 4 h (in vivo, % ID/g Femur) was 0.49 %ID/g, the tissue uptake at 24 h (in vivo, % ID/g Femur) was 0.4 %ID/g and the tissue uptake at 72 h (in vivo, % ID/g Femur) was 0.31 %ID/g. It also gave a tissue uptake at 4 h (in vivo, % ID/g Heart) of 0.8 %ID/g, a tissue uptake at 24 h (in vivo, % ID/g Heart) of 0.17 %ID/g and a tissue uptake at 72 h (in vivo, % ID/g Heart) of 0.19 %ID/g. The tissue uptake at 4 h (in vivo, % ID/g Intestine) was 0.6 %ID/g, the tissue uptake at 24 h (in vivo, % ID/g Intestine) was 1.25 %ID/g and the tissue uptake at 72 h (in vivo, % ID/g Intestine) was 0.37 %ID/g. It also gave a tissue uptake at 4 h (in vivo, % ID/g Kidney) of 48.2 %ID/g, a tissue uptake at 24 h (in vivo, % ID/g Kidney) of 68.6 %ID/g and a tissue uptake at 72 h (in vivo, % ID/g Kidney) of 24.3 %ID/g. It also gave a tissue uptake at 4 h (in vivo, % ID/g Liver) of 3.31 %ID/g, a tissue uptake at 24 h (in vivo, % ID/g Liver) of 2.24 %ID/g and a tissue uptake at 72 h (in vivo, % ID/g Liver) of 1.28 %ID/g. For the same compound, the tissue uptake at 4 h (in vivo, % ID/g Lung) was 1.32 %ID/g, the tissue uptake at 24 h (in vivo, % ID/g Lung) was 0.72 %ID/g and the tissue uptake at 72 h (in vivo, % ID/g Lung) was 0.95 %ID/g. For the same compound, the tissue uptake at 4 h (in vivo, % ID/g Muscle) was 0.17 %ID/g, the tissue uptake at 24 h (in vivo, % ID/g Muscle) was 0.17 %ID/g and the tissue uptake at 72 h (in vivo, % ID/g Muscle) was 0.11 %ID/g. The tissue uptake at 4 h (in vivo, % ID/g Pancreas) was 2.11 %ID/g, the tissue uptake at 24 h (in vivo, % ID/g Pancreas) was 3.37 %ID/g and the tissue uptake at 72 h (in vivo, % ID/g Pancreas) was 3.14 %ID/g. The tissue uptake at 4 h (in vivo, % ID/g Spleen) was 0.64 %ID/g, the tissue uptake at 24 h (in vivo, % ID/g Spleen) was 0.56 %ID/g and the tissue uptake at 72 h (in vivo, % ID/g Spleen) was 2.17 %ID/g. For the same compound, the tissue uptake at 4 h (in vivo, % ID/g Stomach) was 3.68 %ID/g, the tissue uptake at 24 h (in vivo, % ID/g Stomach) was 2.25 %ID/g and the tissue uptake at 72 h (in vivo, % ID/g Stomach) was 2.99 %ID/g. The tissue uptake at 4 h (in vivo, % ID/g Tumor) was 30.9 %ID/g, the tissue uptake at 24 h (in vivo, % ID/g Tumor) was 14.9 %ID/g and the tissue uptake at 72 h (in vivo, % ID/g Tumor) was 18 %ID/g.
With `C[C@@H](O)[C@H](NC(=O)[C@@H]1CSSC[C@H](NC(=O)[C@@H](Cc2ccccc2)NC(=O)CN2CCN(CC(=O)O)CCN(CC(=O)O)CCN(CC(=O)O)CC2)C(=O)N[C@@H](Cc2ccc(O)cc2)C(=O)N[C@H](Cc2c[nH]c3ccccc23)C(=O)N[C@@H](CCCCN)C(=O)N[C@@H]([C@@H](C)O)C(=O)N1)C(=O)O` [^177Lu-C-1, metal not drawn, reference compound] the tissue uptake at 4 h (in vivo, % ID/g Adrenal gland) was 8.73 %ID/g, the tissue uptake at 24 h (in vivo, % ID/g Adrenal gland) was 0.15 %ID/g and the tissue uptake at 72 h (in vivo, % ID/g Adrenal gland) was 0.13 %ID/g. For the same compound, the tissue uptake at 4 h (in vivo, % ID/g Blood) was 0.02 %ID/g, the tissue uptake at 24 h (in vivo, % ID/g Blood) was 0.01 %ID/g and the tissue uptake at 72 h (in vivo, % ID/g Blood) was 0.01 %ID/g. It also gave a tissue uptake at 4 h (in vivo, % ID/g Femur) of 0.07 %ID/g, a tissue uptake at 24 h (in vivo, % ID/g Femur) of 0.11 %ID/g and a tissue uptake at 72 h (in vivo, % ID/g Femur) of 0.08 %ID/g. The tissue uptake at 4 h (in vivo, % ID/g Heart) was 0.06 %ID/g, the tissue uptake at 24 h (in vivo, % ID/g Heart) was 0.05 %ID/g and the tissue uptake at 72 h (in vivo, % ID/g Heart) was 0.04 %ID/g. It also gave a tissue uptake at 4 h (in vivo, % ID/g Intestine) of 0.2 %ID/g, a tissue uptake at 24 h (in vivo, % ID/g Intestine) of 0.46 %ID/g and a tissue uptake at 72 h (in vivo, % ID/g Intestine) of 0.11 %ID/g. The tissue uptake at 4 h (in vivo, % ID/g Kidney) was 3.88 %ID/g, the tissue uptake at 24 h (in vivo, % ID/g Kidney) was 1.21 %ID/g and the tissue uptake at 4 h (in vivo, % ID/g Liver) was 0.1 %ID/g. It also gave a tissue uptake at 24 h (in vivo, % ID/g Liver) of 0.07 %ID/g, a tissue uptake at 72 h (in vivo, % ID/g Liver) of 0.06 %ID/g and a tissue uptake at 4 h (in vivo, % ID/g Lung) of 0.63 %ID/g. The tissue uptake at 24 h (in vivo, % ID/g Lung) was 0.32 %ID/g, the tissue uptake at 72 h (in vivo, % ID/g Lung) was 0.21 %ID/g and the tissue uptake at 4 h (in vivo, % ID/g Muscle) was 0.01 %ID/g. It also gave a tissue uptake at 24 h (in vivo, % ID/g Muscle) of 0.02 %ID/g, a tissue uptake at 72 h (in vivo, % ID/g Muscle) of 0.01 %ID/g and a tissue uptake at 4 h (in vivo, % ID/g Pancreas) of 0.02 %ID/g. For the same compound, the tissue uptake at 24 h (in vivo, % ID/g Pancreas) was 0.16 %ID/g, the tissue uptake at 72 h (in vivo, % ID/g Pancreas) was 0.03 %ID/g and the tissue uptake at 4 h (in vivo, % ID/g Spleen) was 0.08 %ID/g. The tissue uptake at 24 h (in vivo, % ID/g Spleen) was 0.04 %ID/g, the tissue uptake at 72 h (in vivo, % ID/g Spleen) was 0.05 %ID/g and the tissue uptake at 4 h (in vivo, % ID/g Stomach) was 1.18 %ID/g. For the same compound, the tissue uptake at 24 h (in vivo, % ID/g Stomach) was 0.59 %ID/g, the tissue uptake at 72 h (in vivo, % ID/g Stomach) was 0.21 %ID/g and the tissue uptake at 4 h (in vivo, % ID/g Tumor) was 14 %ID/g. The tissue uptake at 24 h (in vivo, % ID/g Tumor) was 5.76 %ID/g and the tissue uptake at 72 h (in vivo, % ID/g Tumor) was 4.33 %ID/g.
In the case of `CCCC[C@H](NC(=O)[C@H](Cc1c[nH]c2ccccc12)NC(=O)CNC(=O)[C@H](Cc1ccc(O)cc1)NC(=O)[C@H](C)NC(=O)[C@@H](CCC(=O)O)NC(=O)[C@@H](CCC(=O)O)NC(=O)[C@@H](CCC(=O)O)NC(=O)[C@@H](CCC(=O)O)NC(=O)[C@@H](CCC(=O)O)NC(=O)[C@@H](CCC(=O)O)NC(=O)CN1CCN(CC(=O)O)CCN(CC(=O)O)CCN(CC(=O)O)CC1)C(=O)N[C@@H](CC(=O)O)C(=O)N[C@@H](Cc1ccccc1)C(N)=O` [^177Lu-C-2, metal not drawn, reference compound], the tissue uptake at 4 h (in vivo, % ID/g Blood) is reported as 0.08 %ID/g, the tissue uptake at 24 h (in vivo, % ID/g Blood) is reported as 0.01 %ID/g and the tissue uptake at 4 h (in vivo, % ID/g Femur) is reported as 0.12 %ID/g. For the same compound, the tissue uptake at 24 h (in vivo, % ID/g Femur) was 0.24 %ID/g, the tissue uptake at 4 h (in vivo, % ID/g Heart) was 0.05 %ID/g and the tissue uptake at 24 h (in vivo, % ID/g Heart) was 0.04 %ID/g. For the same compound, the tissue uptake at 4 h (in vivo, % ID/g Intestine) was 0.06 %ID/g, the tissue uptake at 24 h (in vivo, % ID/g Intestine) was 0.05 %ID/g and the tissue uptake at 4 h (in vivo, % ID/g Kidney) was 2.72 %ID/g. For the same compound, the tissue uptake at 24 h (in vivo, % ID/g Kidney) was 0.71 %ID/g, the tissue uptake at 4 h (in vivo, % ID/g Liver) was 0.15 %ID/g and the tissue uptake at 24 h (in vivo, % ID/g Liver) was 0.12 %ID/g. It also gave a tissue uptake at 4 h (in vivo, % ID/g Lung) of 0.06 %ID/g, a tissue uptake at 24 h (in vivo, % ID/g Lung) of 0.11 %ID/g and a tissue uptake at 4 h (in vivo, % ID/g Muscle) of 0.06 %ID/g. It also gave a tissue uptake at 24 h (in vivo, % ID/g Muscle) of 0.01 %ID/g, a tissue uptake at 4 h (in vivo, % ID/g Pancreas) of 0.01 %ID/g and a tissue uptake at 4 h (in vivo, % ID/g Spleen) of 0.06 %ID/g. The tissue uptake at 24 h (in vivo, % ID/g Spleen) was 0.05 %ID/g, the tissue uptake at 4 h (in vivo, % ID/g Stomach) was 0.21 %ID/g and the tissue uptake at 24 h (in vivo, % ID/g Stomach) was 0.17 %ID/g. It also gave a tissue uptake at 4 h (in vivo, % ID/g Tumor) of 1.07 %ID/g, a tissue uptake at 24 h (in vivo, % ID/g Tumor) of 0.82 %ID/g and a tissue uptake at 24 h (pancreas, % ID/g Pancreas, 24 h post-injection, n=3) of 0.02 %ID/g.
With `CC(C)(C)C(=O)CN1C(=O)[C@H](NC(=O)Nc2cccc(C(=O)N[C@@H](CCC(=O)N[C@@H](CCC(=O)N[C@@H](CCC(=O)N[C@@H](CCCCNC(=O)COCCOCCNC(=O)COCCOCCNC(=O)CCC(C(=O)O)N3CCN(CC(=O)O)CCN(CC(=O)O)CCN(CC(=O)O)CC3)C(N)=O)C(=O)O)C(=O)O)C(=O)O)c2)CN(C2CCCCC2)c2ccccc21` (some centres unmarked) [^177Lu-C-4, metal not drawn, reference compound] the tissue uptake at 4 h (in vivo, % ID/g Blood) was 0.09 %ID/g, the tissue uptake at 24 h (in vivo, % ID/g Blood) was 0.01 %ID/g and the tissue uptake at 4 h (in vivo, % ID/g Femur) was 0.04 %ID/g. For the same compound, the tissue uptake at 24 h (in vivo, % ID/g Femur) was 0.04 %ID/g, the tissue uptake at 4 h (in vivo, % ID/g Heart) was 0.07 %ID/g and the tissue uptake at 24 h (in vivo, % ID/g Heart) was 0.03 %ID/g. For the same compound, the tissue uptake at 4 h (in vivo, % ID/g Intestine) was 0.12 %ID/g, the tissue uptake at 24 h (in vivo, % ID/g Intestine) was 0.04 %ID/g and the tissue uptake at 4 h (in vivo, % ID/g Kidney) was 3.38 %ID/g. For the same compound, the tissue uptake at 24 h (in vivo, % ID/g Kidney) was 1.32 %ID/g, the tissue uptake at 4 h (in vivo, % ID/g Liver) was 0.17 %ID/g and the tissue uptake at 24 h (in vivo, % ID/g Liver) was 0.11 %ID/g. It also gave a tissue uptake at 4 h (in vivo, % ID/g Lung) of 0.07 %ID/g, a tissue uptake at 24 h (in vivo, % ID/g Lung) of 0.03 %ID/g and a tissue uptake at 4 h (in vivo, % ID/g Muscle) of 0.02 %ID/g. It also gave a tissue uptake at 24 h (in vivo, % ID/g Muscle) of 0.01 %ID/g, a tissue uptake at 4 h (in vivo, % ID/g Pancreas) of 0.03 %ID/g and a tissue uptake at 24 h (in vivo, % ID/g Pancreas) of 0.01 %ID/g. The tissue uptake at 4 h (in vivo, % ID/g Spleen) was 0.06 %ID/g, the tissue uptake at 24 h (in vivo, % ID/g Spleen) was 0.02 %ID/g and the tissue uptake at 4 h (in vivo, % ID/g Stomach) was 0.06 %ID/g. The tissue uptake at 24 h (in vivo, % ID/g Stomach) was 0.03 %ID/g, the tissue uptake at 4 h (in vivo, % ID/g Tumor) was 4.69 %ID/g and the tissue uptake at 24 h (in vivo, % ID/g Tumor) was 1.44 %ID/g.
